Data published in publication doi:10.1101/2021.09.12.459962 (bioRxiv, 2021).

Molecular target: the molecule itself
Assay: AUC; sedimentation equilibrium of UDS1-His at 4 µM, 6000 to 9000 rpm, single-species model; monomers to dimer

B1: UDS1-His6 (natural protein, Aspergillus nidulans, UniProt Q5B1I5 1-941, looked up)
chain: MNGFDFRSSQSSYGDPRHFSDASYGVPQPPPTKVLLDGYRDALGPANAEKSLYNSANPTSHPRRSIPPSANDPVAMYLLTETAMGDSVNYEILSVEEVEGLKKELRVLSNRMNAAKRKLALELKLRDAAMSLSRLHHKEEHDVDGSGRNEPNTDKTNEELVHINRKCEELSMDIWYSERKVQEIQKRLLEHTAGVLQLTHKGLKKNSKNGMPHTPESLSSSNTVDDFDDRSLYKASDPLDGPETYETRAPPPDNLAHDNSMQETERKLESMSSRLRDMLLQLDPDSEFSQIPQPSTSGDSFEPSAMIDAHLRYIENGISALGSLPKADMASQSLDPVSEQQLVEMRTQLLSIMENPGLPRAQTLPTAPDPTDSDLAKHLTFLSVGINGLESRVEKLLEQKSILTTQIQQQRELNSKSDAERDAKIADLIEQLAHLRKELELAEREGQQSKEDHDLTLKELEDVRRELLESRETHSSRDLGNSKNEAQQHAEAEIARLQSVIQEIQQEKDEHCEAHRRAEAEIDRLQAVIHQIQQEKDEHREAHERAEAETTRLQTIVEEVQQEKDEQHEAHGRAVAEVTRLQDIIQKIEQEKIERHEADERAEAEIVRLRDTIREIQQEKEEHHEARVRLEGEVARLQGVIGQLQESAESRESAEQQVAQLEETIHQIRHDADIRIKEATDSRAQADAKIAQLEGAMNEVRESLESQLKEATEARNNAEENSTRLQKELTELERDVVRAQTELTMVKAELDGAYGTRAQRAAEAAADPALFHELDELKARNFEMAEELAALKAGKPGSGDVHNRVETLERELRETVDDYEAMTKASIEFEKERERFESMIDSLRDRCEQLETQLNEERISWMGANNSASSMGRDGPYETTSTMVLKNEFKKMMRDTRAENMKILKAEQEERRKLEAILRNLKREQANLSGKSNISRTVTAS
notes: UDS1, product of AN5595 of Aspergillus nidulans, 941 residues; UDS1 cDNA cloned as NheI/NotI in pET21b; Mr 106,857 Da; Dimer by sedimentation equilibrium; also called purified UDS1; bacterially expressed UDS1; source: E. coli BLB21 pRIL, purified (Ni-Sepharose, Superdex gel filtration)
stoichiometry N: 2
